{"source": "patent US20030077318A1", "binders": {"B1": {"name": "[^125I]VSV-8 (peptide)", "peptide": "RGYVYQGL", "modifications": "not checked"}, "B2": {"name": "VSV-8 (peptide)", "peptide": "RGYVYQGL", "modifications": "not checked"}, "B3": {"name": "VSV-9C (peptide)", "peptide": "RGYVYQGLK", "modifications": "not checked"}, "B4": {"name": "VSV-9N (peptide)", "peptide": "LRGYVYQGL", "modifications": "not checked"}, "B5": {"name": "VSV-10N (peptide)", "peptide": "DLRGYVYQGL", "modifications": "not checked"}, "B6": {"name": "VSV-10C (peptide)", "peptide": "RGYVYQGLKS", "modifications": "not checked"}}, "key": {"[1]": {"molecular_target": "T1, soluble H-2K^b (K^bsol), heterodimer of truncated K^b heavy chain and murine β-2 microglobulin, purified empty from Drosophila cells (murine), P01901", "T1 chain 1": "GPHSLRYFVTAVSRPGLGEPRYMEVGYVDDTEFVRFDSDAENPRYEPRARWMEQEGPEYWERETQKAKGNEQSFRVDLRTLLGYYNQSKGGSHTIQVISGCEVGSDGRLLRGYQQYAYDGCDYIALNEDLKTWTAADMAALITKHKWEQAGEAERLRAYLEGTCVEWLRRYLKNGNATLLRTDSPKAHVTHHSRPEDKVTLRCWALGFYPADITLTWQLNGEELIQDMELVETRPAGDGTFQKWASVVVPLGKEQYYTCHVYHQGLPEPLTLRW", "T1 chain 2": "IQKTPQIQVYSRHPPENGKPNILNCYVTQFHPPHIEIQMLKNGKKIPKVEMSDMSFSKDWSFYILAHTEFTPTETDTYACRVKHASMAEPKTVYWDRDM"}, "[2]": {"molecular_target": "T1, soluble H-2K^b (K^bsol), heterodimer of …"}, "[3]": {"molecular_target": "T1, soluble H-2K^b (K^bsol), heterodimer of …", "test": "competitive RIA against [^125I]VSV-8 on K^bsol, P30 gel filtration, 23° C."}}, "note": "Where two headings read alike, the source gives them in different places.", "data": [{"binder": "B1", "values": [{"measurement": "half-time of association", "setting": "[1]", "result": 5, "unit": "min"}, {"measurement": "Kd", "setting": "[2]", "result": 33, "unit": "nM"}]}, {"binder": "B2", "values": [{"measurement": "Kd", "setting": "[3]", "result": 3.7, "unit": "nM"}]}, {"binder": "B3", "values": [{"measurement": "Kd", "setting": "[3]", "result": 6.9, "unit": "nM"}]}, {"binder": "B4", "values": [{"measurement": "Kd", "setting": "[3]", "result": 7.3, "unit": "nM"}]}, {"binder": "B5", "values": [{"measurement": "Kd", "setting": "[3]", "result": 390, "unit": "nM"}]}, {"binder": "B6", "values": [{"measurement": "Kd", "setting": "[3]", "result": 21, "unit": "nM"}]}]}
